In one assay the target is T1, human Fn14 (human, UniProt Q9NP84 28-129).
T1 sequence: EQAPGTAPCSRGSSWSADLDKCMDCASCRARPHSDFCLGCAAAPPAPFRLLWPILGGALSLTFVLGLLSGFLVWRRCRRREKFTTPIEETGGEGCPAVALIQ
Nature of the assay: cell-based or functional assay.

In assay [1] the target is phage expressed hFn14 mutant S54A (human, UniProt Q9NP84 28-77). Nature of the assay: phage ELISA, mAb coated (Method 2). The protocol:
The wells of Maxisorp immunoplates (Nunc) were coated overnight at 4° C. with the target monoclonal antibodies or recombinant Tweak-Fc at a concentration of 1.5 μg/ml in PBS. mAb 5G8 was used as a negative control for ELISA plates coated with tested antibodies. […] 10-fold serial dilutions of phage were made using PBS solution and phage dilutions were added to the coated, blocked ELISA plates for 1 hour, shaking at room temperature. Phage was subsequently removed from the wells and the ELISA plates were washed three times with PBS/0.05% Tween 20.
Method A: HRP-conjugated anti-M13-phage antibody (GE Healthcare) at a 1/5000 dilution in PBS was then added to the wells of the ELISA plates for 1 hour, shaking at room temperature. The antibody solution was then removed from the wells and the ELISA plates were washed four times with PBS/0.05% Tween 20. Method B: Biotin-conjugated anti-M13-phage antibody (GE Healthcare) diluted in PBS was then added to the wells of the ELISA plates for 1 hour shaking at room temperature. The antibody solution was then removed from the wells and the ELISA plates were washed three times with PBS/0.05% Tween 20. HRP-conjugated Streptavidin diluted in PBS was then added to the wells of the ELISA plates for 1 hour, shaking at room temperature. […] Optical density at 450 nm was quantified using a Spectramax absorbance spectrophotometer.

In assay [2] the target is T2, synthetic peptide hFn14 sub-domain 1p (human, biotin on the added C-terminal lysine).
T2 construct: synthesised by GLBiochem
T2 peptide: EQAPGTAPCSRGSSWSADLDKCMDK
The assay can be described thus: ELISA on biotinylated synthetic peptide. The protocol:
Peptides representing sub-domains 1p, 2 and 3 of hFn14 (FIG. 20, Panels B and C and FIG. 14, Panel A) and for disulfide pair mutants (Cys3&6ΔS and Cys4&5ΔS; FIG. 20 Panels D and E) were synthesized by GLBiochem Ltd. (Shanghai, China) and the cysteine residues for disulfide bonds were chosen as described in the solution structure by He et al., (2009). An additional lysine residue was added to the C-terminus in order to attach a biotin moiety and to enable the peptides to bind to neutravidin coated plates (Pre-blocked; Pierce). For these experiments, a control peptide with a biotin at the C-terminus was used as a negative control and isotype control antibodies were also used.
The ELISA was performed essentially according to the manufacturer's recommended protocol (Pierce). Briefly, peptide was coated onto wells (in duplicate) at 1-10 μg/ml for 2 hours at room temperature. Wells were washed in PBS/0.05% Tween 20/0.1% BSA 3 times and dilutions of each antibody were added in wash buffer for 1 hour with gentle agitation. After another three washes anti-mouse HRP-conjugated to horse radish peroxidase (HRP; Chemicon) was added at 1/1000 dilution for 1 hour shaking. Finally, after 4 further washes the plate was developed using TMB (3,3′,5,5′-tetramethylbenzidine) substrate (Pierce), and the reaction was stopped using 2M H2SO4 solution. Optical density at 450 nm was quantified using a Spectromax absorbance spectrophotometer.
In general terms: In an ELISA, binding on a coated surface is turned into a signal by an enzyme label.

Assay [3] has as its target T3, Histidine tagged hFn14 extracellular domain, bacterially expressed (human, UniProt Q9NP84 28-77).
T3 construct: also called recombinant Fn14; recombinant human Fn14; not shown: (His)6 tag from pET-15b
The assay can be described thus: SPR (ProteOn XPR36), mAb coupled to chip, His-tagged hFn14 analyte, Langmuir 1:1 fit. The protocol:
The kinetic analysis of the monoclonal antibodies was performed on a ProteOn XPR36 system (BioRad) Laboratories) essentially according to the protocol from Nahshol et al (2008). Monoclonal antibodies against hFn14 (50 μg/ml) were covalently coupled to a GMC chip. Analytes were a serial dilution of bacterially expressed and purified Histidine tagged hFn14. The binding sensorgrams were collected, processed and analyzed using the integrated ProteOn Manager software (BioRad Laboratories). Binding curves were fitted using the Langmuir model describing 1:1 binding stoichiometry.
Binding kinetics of anti-Fn14 antibodies CRCBT-06-001, CRCBT-06-002, CRCBT-06-004, ITEM-1 and ITEM-4 were assessed as described herein and results are set out in Table 4.

The target in assay [4] is T4, His tagged hFn14 extracellular region mutant R56K (human, UniProt Q9NP84 28-77).
T4 construct: not shown: (His)6 tag
The assay can be described thus: ELISA with purified His-tagged hFn14 R56K; x axis 'Log (c)' without unit, µg/ml by the legend.

Assay [5] addresses phage expressed hFn14 mutant F63A (human, UniProt Q9NP84 28-77). The assay can be described thus: phage ELISA (Method 2): antibody coated on the plate, 10-fold dilutions of phage displaying hFn14 F63A; HRP-conjugated anti-M13 phage polyclonal IgG, TMB, OD 450 nm; x axis = dilution of phage. From the text:
For mutants P59A and F63A, binding was detected using HRP-conjugated anti-M13-phage polyclonal IgG and TMB substrate. For all other mutants binding was detected using Biotin-conjugated anti-M13-phage monoclonal antibody followed by HRP-conjugated Streptavidin and TMB substrate. Optical density at 450 nm was quantified using a Spectramax spectrophotometer. Error bars for each dilution represent the standard deviation of duplicate assays. FIG. 27A wild type Fn14, FIG. 27B W42A, FIG. 27C S54A, FIG. 27D A57G, FIG. 27E P59A, FIG. 27F S61A, FIG. 27G F63A, FIG. 27H L65A. In all cases error bars represent the standard deviation. X axis=dilution of phage. Methods according to Epitope mapping using phage expressed Fn14—Method 2
The wells of Maxisorp immunoplates (Nunc) were coated overnight at 4° C. with the target monoclonal antibodies or recombinant Tweak-Fc at a concentration of 1.5 μg/ml in PBS. mAb 5G8 was used as a negative control for ELISA plates coated with tested antibodies. […] 10-fold serial dilutions of phage were made using PBS solution and phage dilutions were added to the coated, blocked ELISA plates for 1 hour, shaking at room temperature. Phage was subsequently removed from the wells and the ELISA plates were washed three times with PBS/0.05% Tween 20. […]

Chain of phage expressed hFn14 mutant S54A (Q9NP84 28-77 S54A): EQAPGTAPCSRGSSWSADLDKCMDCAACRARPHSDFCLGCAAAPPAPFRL

B1: CRCBT-06-002 (antibody, IgG1, V domains shown)
VH: EVKLQQSGGGLVQPGGSMKLSCVASGFTFSYYWMNWVRQSPEQGLEWIAEIRLQSNDYPTHYAESVKGRFTISRDDSKNSVYLQMNNLRPEDTGIYYCACRYADYFDHWGQGTTLTVSS
VL: DTVLTQSPASLVVSLGQRATISCRASQSVSTSDYSYIHWYQQKPGQPPKFLIKYASNRDSGVPARFSGSGSGTDFTLNIHPVEEDDTAIYYCQHSWEIPPTFGAGTKLELQR
The term Kd denotes the free concentration of one partner at which half of the binding sites on the other are occupied at equilibrium, for simple one-to-one binding. The term koff denotes a measure of how fast the partners let go of each other. Read a high koff as a short-lived complex. As usually defined, the kon is a measure of how fast the partners come together. Low readings indicate slower complex formation, high ones faster complex formation. Take B1: in the assay with human Fn14, the “% Agonist, IL-8 secretion by A375 cells” value was 11% and the “% Antagonist, IL-8 secretion by A375 cells” value is 94%. Further, in assay [1], the binding result is “binds”. For the same molecule, the binding result in assay [2] is listed as “no binding”. In assay [3], the Kd was 0.198 nM, the koff is 2.59e-05 s⁻¹ and the kon is 131000 M⁻¹ s⁻¹. In assay [4], the binding result is given as “binds”. Also, the binding result in assay [5] is “binds”.

B2: CRCBT-06-001 (antibody, IgG2b, V domains shown)
VH: QVQLQQSGGGLVQPGGSMKLSCIASGFTFSSYWMSWVRQSPEKGLEWVAEIRSKSDNYATHYAESVKGKFTISRDDSKSRFFLQMNNLRAEDTGIYYCSSTYADYFHYWGQGTDLTVSS
VL: DIVMTQTPASLAVSLGQRATISCRASQSVSTSTYSYMHWYQQKPGQPPKLLIKYASSLESGVPARFSGSGSGTDFTLNIHPVEEDDTATYYCQHSWEIPYTFGGGTKLEIKR
Turning to B2, the “% Agonist, IL-8 secretion by A375 cells” value with human Fn14 was 128%. Moreover, the binding result is listed as “binds” in assay [1], “no binding” in assay [2], “binds” in assay [4] and “binds” in assay [5]. The molecule further displayed a Kd in assay [3] of 0.55 nM. In assay [3], this molecule showed a koff of 0.000102 s⁻¹. Moreover, the kon in assay [3] stood at 186000 M⁻¹ s⁻¹.

The record behind these values is patent US20200239586A1 (LA TROBE UNIVERSITY, published 2020).
